Data as given in patent US20240218057A1 (ROCKEFELLER UNIVERSITY, published 2024).

B1: C859 (antibody, V domains shown)
VH: QVQLVQSGAELKKPGASVRVSCKASGYTFTDYYIHWVRQAPGQGFEWMGWINPDSGGTNYPQNFQGRVTMTRGTSISTAYVELTRLRFDDTAVYYCARTSSPHSSSTGDLDYWGQGTLVTVS
VL: SYELTQSPSVSVAPGKTARITCGGRDIGSKSVHWYQQRPGQAPVLVISYDNDRPSGIPERFSGSNSGNTATLTISRVEAGDEADYYCQVWDGTGDHPGWVFGGGTRLTVL
notes: IgG; V domains only
B2: C849 (antibody, V domains shown)
VH: QVQLVQSGAEVKKPGASVKVSCRASGYTFTDHYIHWVRQAPGQGLEWMGWINPNSGDTNYPQKFQGRVTMARDTSISTAHMELRRLKSDDTAVYYCARTSSPHSSSTGDFDSWGQGTLVTVSS
VL: SYELTQPPSVSVAPGKTARITCGGDDIGSKSVHWYQQKSGQAPVLVIHDDSDRPSGIPERFSGSNSGNTATLTISRVEAGDEADYYCQVWDFTGDHPGWVFGGGTKLTVL
notes: IgG; V domains only
B3: C860 (antibody, V domains shown)
VH: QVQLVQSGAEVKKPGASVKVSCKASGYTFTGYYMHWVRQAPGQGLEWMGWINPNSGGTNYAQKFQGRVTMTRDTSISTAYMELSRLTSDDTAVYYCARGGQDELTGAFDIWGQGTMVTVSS
VL: SYELTQPPSVSVAPGKTARITCGGNSIGSKSVHWYQQKPGQAPVLVIYYDSDRPSGIPERFSGSNSGNTATLTISRVEAGDEADFHCQVWDSGWVFGGGTKLTVL
notes: IgG; V domains only
B4: C852 (antibody, V domains shown)
VH: QVQLVQSGAEVKKPGASVKVSCKASGYIFTGFYMHWVRQAPGQGPEWMGWINPNSGGTNYAQKFQGRVTMTRDTSISTAYMELSRLRSDDTALYYCARGGQDELTGTFDVWGQGTMVTVSS
VL: SYELTQPPSVSLAPGKTASITCGGDSIGSKSVHWYQQRPGQAPILVIYYDGDRPSGIPERFSGSNSGNTATLTISRVEAGDEADYYCQVWDGGWVFGGGTKLTVL
notes: IgG; V domains only
B5: C853 (antibody, V domains shown)
VH: QVQLQESGPGLVKASQTLSLTCTVSGGSFRSGGYYYNWIRQHPGKGLEWIGYIFYTGVTYYNPSLKSRVSISVDTSKNQLSLNLTSVTAADTAVYYCARGSYSDYNGGWDYWGRGTLVTVS
VL: QSALTQPPSASGSPGQSVTISCIGTSSDVGGYNYVSWYQHHPGKAPKLIIYEVSKRPSGVPDRFSGSKSGNTASLTVSGLQADDEADYYCSSYAGSNNWVFGGGTKLTV
notes: IgG; V domains only
B6: C839 (antibody, V domains shown)
VH: QVQLQESGPGLVKPLDTLSLTCTVSGASISSYYWSWIRQPAGKGLEWIGLIYSSGSTTYNPSLKSRVTMSVDTSKKQFSLNLSSMTAADTAVYYCARGSALNWKSIGYFDSWGQGTLVTV
VL: DIQMTQSPSSLSASIRDRVTITCQASQDISNYLNWYQQKAGEAPKLLIYDASSLETGVPSRFSGSGSGTEFTLTISSLQPEDIATYYCQQYDHVPLTFGGGTKVEIK
notes: IgG; V domains only
B7: C844 (antibody, V domains shown)
VH: EVQLVESGGGLVKPGGSLRLSCVATGFSFSDAWMNWVRQAPGKGLEWVGRIRSEIADGTTDYAAPVKGRFTISRDDARNTLYLQMNSLEIEDTAVYYCTTGVVVVVSSSPDDAFDVWGQGTMVTVSS
VL: DIQMTQSPSSLSASVGDRVTITCRASQSIGHYLNWYQQKPGKAPKLLIYAASSLQSGVPSRFSGSGSGAGFTLTVNGLQPEDLATYYCQQYYTTPPTFGQGTKVEIK
notes: IgG; V domains only
B8: C850 (antibody, V domains shown)
VH: QVQLQESGPGLVKPSETLSLICSVSGVSVSSRNFFWSWIRQPPGKGLEWIGYMSYGGNTNYNPSLKSRVTISIDTSKNQFSLKLSSVTAADTAVYYCARETYYYDRSGYYSSDGFDYWGQGILVTVSS
VL: EIVLTQSPGTLSLSPGERATLSCRASQSITSSSLAWYQQKRGQPPRLLIYGASSRATGIPDRFSGSGSGTDLTLTISRLEPEDFAVYYCQQYGNSPYTFGQGTKLEIK
notes: IgG; V domains only
B9: C851 (antibody, V domains shown)
VH: QLQLQESGPGLVKTSETLSLTCTVSGGSISSGNSYWGWIRQPPGKGLEWIGDIYYSGSTFYNPSLKSRLTISVDTSKNQFSLKLTSVTAADTAVYYCARRGGRTPVRFNYGGDVWGQGTTVTVSS
VL: DIQMTQSPSSLSASVGDRVTITCQASQDISRYLNWFQHKPGKAPKLLIYDASNLEAGVPSRFTGSGSGTEFTFTISSLQPEDFAIYFCQQYDSLPLTFGGGTKVEI
notes: IgG; V domains only
B10: C854 (antibody, V domains shown)
VH: EVQLVESGGGLIQPGGSLRLSCAASGITVSSNYMNWVRQAPGKGLEWVSVLYAGGSTFYADSVKGRFTISRDDSKNTLYLQMDSLRAEDTAVYYCARDLSSSGGFDYWGQGTLVTVSS
VL: EIVLTQSPGTLSLSPGERATLSCRASQSVSSSYLAWYQQKPGQAPRLLIYGASSRATGIPDRFSGRGSGTDFTLTISRLEPEDFAVYYCQQYGSLYTFGQGTKLEIK
notes: IgG; V domains only
B11: C847 (antibody, V domains shown)
VH: QVQLVESGGGVVQPGGSLRLSCGASGFTFSSYAMHWVRQAPGEGLEWVAVILYDGAGKFYADSVKGRFTISRDNSKNTLYLQMNSLRAEDTAVYYCARDYGDYVTHFDYWGQGALVTVSS
VL: DIQMTQSPSSLSASVGDRVTITCRASQSISSYLNWYQQKPGKAPKLLIYTASSLQSGVPSRFSGSGSGTDFTLTITSLQPEDFATYYCQQSYNTPPWTFGQGTKVEIK
notes: IgG; V domains only
B12: C863 (antibody, V domains shown)
VH: EVQLLESGGGLVRPGGSLRLSCAASGFIFGSYAMTWVRQAPGKGLEWVSTISGGGTSTDYADSVKGHFTISRDNGKNTLYLQMNSLRAEDTAVYYCVKESDYYMASVNGMDVWGHGTTVTVSS
VL: EIVLTQSPGTLSLSPGERATLSCRARQGVSSTYLAWYQQKPGQAPRLLIYGASSRATGIPDRFSGSGSGADFTLTISRLEPEDFAVYYCQQYGTSPYTFGQGTKLEIK
notes: IgG; V domains only
B13: C864 (antibody, V domains shown)
VH: QVQLVQSGPEVKKPGTSVKVSCKAFQLSFSVSAVQWVRQARGQRLEWIGWIVVGSGNTNYAQKFQERVTITRDMSTSTVYMEVRSLRSEDTAVYYCAAPQCNRTTCYDAFDMWGQGTMVTVSS
VL: EIVLTQSPGTLSLSPGERATLSCRASQSVNSNYLAWYQQKPGQAPRLLIFGPSNRATGIPDRFSGSGSGTDFTLTISRLESEDFAVYYCQQYGSSPWTFGQGTKVEIK
notes: IgG; V domains only
B14: C865 (antibody, V domains shown)
VH: EVQLLESGGGLVQPGGSLRLSCVASRFIFSRYALSWVRQAPGKGLEWVSGISGSGHSTHYADSVTGRFTISRDNSKNTVYLQMSSLRAEDTAVYYCAKGPRSNYDYFESWGQGTLVTVSS
VL: DIQLTQSPSSLSASVGDRVTITCRASQGISSALAWYQQRPGKAPRLLIYDASSLDSGVPSRFSGSGSGTDFTLTISSLQSEDFATYYCQQFINNPLTFGGGTKVEIK
notes: IgG; V domains only
B15: C866 (antibody, V domains shown)
VH: EVQLVESGGGLVQPGRSLRLSCVASGFEFEDYGMHWVRQVPGKGLEWVSGISWNSASVGYADSVRGRFTISRDNAKNSLYLQMNSLRAEDTALYYCGKQINEWSHFLDYWGQGTLVTVSS
VL: DIQLTQSPSSVSASVGDRVTITCRASQGISNWLAWYQKKPGKAPKLLIYATSSLQSGVPSRFSGSGSETDFTLTIRSLQPEDFATYYCQQANSYPLTFGQGTKLEIK
notes: IgG; V domains only
B16: C867 (antibody, V domains shown)
VH: QVQLQESGPGLVKSSETLSLTCTVSSGSVRSGGYYWSWIRHHPGKGLEWIGYIFYTGITYYNPSLKSRVIVSVDPSKNQFSLNLTSVTAADTAVYYCASTPYTNGGAFHIWGQGTMVTVSS
VL: QSALTQPPSASGSPGQSVTISCTGTSSDVGGHNYVSWYQQFPGKAPKLIIYDVNKRPSGVPDRFSGSKSANTASLTVSGLQAEDEADYHCSSYAGSNNWVFGGGTKLTVL
notes: IgG; V domains only

target: T1, SARS-COV-2 RBD (SARS-COV-2, UniProt P0DTC2 319-539); test: ELISA, RBD coated
T1 construct: also called WT RBD

Which EC50 does the source give for B1 here?
The EC50 was 2.75 ng/mL.

Which EC50 does the source give for B2 here?
Its EC50 is 3.64 ng/mL.

How did the EC50 turn out when B3 was run?
Its EC50 is 2.61 ng/mL.

For B4, which EC50 is on record?
Its EC50 is 4.59 ng/mL.

Which EC50 does the source give for B5 here?
Its EC50 is 2.3 ng/mL.

For B6, which EC50 is on record?
Its EC50 is 4.38 ng/mL.

B7 was tested. Which EC50 did it give?
Its EC50 is 1.53 ng/mL.

B8 was tested. Which EC50 did it give?
Its EC50 is 3.7 ng/mL.

How did the EC50 turn out when B9 was run?
Its EC50 is 2.83 ng/mL.

Which EC50 does the source give for B10 here?
Its EC50 is 2.57 ng/mL.

How did the EC50 turn out when B11 was run?
Its EC50 is 3.06 ng/mL.

B12 was tested. Which EC50 did it give?
Its EC50 is 3.31 ng/mL.

With B13 as the binder, how does the EC50 read?
The EC50 was 1.89 ng/mL.

For B14, which EC50 is on record?
The EC50 was 2.14 ng/mL.

For B15, which EC50 is on record?
The EC50 was 2 ng/mL.

With B16 as the binder, how does the EC50 read?
Its EC50 is 2.71 ng/mL.
